How the values were obtained:
Conditions in all cases: protein: recombinant;recombinant, tags: His-TEV tag, removed by TEV protease;His-TEV tag, chain copies: 2;2, label: 3' Tamra~Q on FL1013, blunt
[1] = target: T1, DNA gyrase subunit A (GyrA);DNA gyrase subunit B (GyrB) (Mycobacterium …, UniProt P9WG47;P9WG45 1-838;1-675, |); assay: EMSA; 2 mM Mg2+, 2 M glycine betaine
[2] = target: T1, DNA gyrase subunit A (GyrA);DNA gyrase …; assay: EMSA; 2 mM Mg2+, 5% PEG400
[3] = target: T1, DNA gyrase subunit A (GyrA);DNA gyrase …; assay: EMSA; 2 mM Mg2+, no crowding agent

T1 sequence (P9WG47 whole entry, chain 1 of 2): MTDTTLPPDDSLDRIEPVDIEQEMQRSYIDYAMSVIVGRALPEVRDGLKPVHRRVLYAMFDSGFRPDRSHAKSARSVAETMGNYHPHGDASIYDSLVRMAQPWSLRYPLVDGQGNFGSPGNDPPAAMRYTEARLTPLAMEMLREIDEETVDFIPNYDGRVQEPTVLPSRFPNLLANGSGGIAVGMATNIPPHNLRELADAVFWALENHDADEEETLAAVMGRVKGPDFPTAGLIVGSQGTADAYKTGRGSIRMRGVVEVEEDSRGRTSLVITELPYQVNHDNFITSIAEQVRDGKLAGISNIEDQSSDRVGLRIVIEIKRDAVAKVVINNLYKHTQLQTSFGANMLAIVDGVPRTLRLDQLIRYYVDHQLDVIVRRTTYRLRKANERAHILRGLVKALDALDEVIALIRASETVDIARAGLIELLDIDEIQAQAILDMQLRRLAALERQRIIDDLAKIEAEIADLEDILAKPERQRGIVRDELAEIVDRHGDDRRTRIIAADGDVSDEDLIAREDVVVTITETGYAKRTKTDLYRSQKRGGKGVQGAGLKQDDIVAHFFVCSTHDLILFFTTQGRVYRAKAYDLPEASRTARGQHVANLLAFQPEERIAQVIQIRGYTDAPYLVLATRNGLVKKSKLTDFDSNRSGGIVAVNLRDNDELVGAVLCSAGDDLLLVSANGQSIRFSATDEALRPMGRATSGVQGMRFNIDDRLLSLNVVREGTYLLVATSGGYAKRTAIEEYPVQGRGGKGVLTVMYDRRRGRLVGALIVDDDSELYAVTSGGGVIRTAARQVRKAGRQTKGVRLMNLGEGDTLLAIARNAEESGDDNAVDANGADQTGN
T1 sequence (P9WG45 whole entry, chain 2 of 2): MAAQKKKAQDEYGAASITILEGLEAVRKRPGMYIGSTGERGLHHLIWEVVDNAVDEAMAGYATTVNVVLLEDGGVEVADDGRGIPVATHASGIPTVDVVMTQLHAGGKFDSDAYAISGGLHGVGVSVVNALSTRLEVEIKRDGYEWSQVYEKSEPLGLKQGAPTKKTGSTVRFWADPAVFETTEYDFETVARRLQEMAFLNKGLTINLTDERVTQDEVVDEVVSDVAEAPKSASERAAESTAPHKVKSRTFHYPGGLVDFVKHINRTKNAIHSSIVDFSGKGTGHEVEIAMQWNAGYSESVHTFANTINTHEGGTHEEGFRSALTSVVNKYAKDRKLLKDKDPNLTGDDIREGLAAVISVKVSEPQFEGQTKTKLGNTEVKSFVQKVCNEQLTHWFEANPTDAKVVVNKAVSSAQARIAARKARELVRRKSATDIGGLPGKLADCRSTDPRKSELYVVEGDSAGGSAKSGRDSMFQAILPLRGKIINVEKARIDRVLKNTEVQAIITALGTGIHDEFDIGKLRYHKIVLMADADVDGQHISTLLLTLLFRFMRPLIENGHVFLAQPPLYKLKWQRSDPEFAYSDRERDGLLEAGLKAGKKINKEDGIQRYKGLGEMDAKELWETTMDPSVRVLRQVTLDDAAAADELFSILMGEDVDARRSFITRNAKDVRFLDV

B1: 50 bp DNA oligomer (FL1013/FL1014) (dsDNA)
DNA 1: TCAGTCCGACATCGGTCATGAATGACTATGCACGTAAACGAGATGCCAAC
DNA 2: GTTGGCATCTCGTTTACGTGCATAGTCATTCATGACCGATGTCGGACTGA
With B1 the Kd [1] was 85 ± 6 nM, the Kd [2] was 60 ± 24 nM and the Kd [3] was 94 ± 4 nM.

Reference: article PMC10731242, “Macromolecular crowding potently stimulates DNA supercoiling activity of Mycobacterium tuberculosis DNA gyrase”
